Source: article PMC3568255 (Protein expression and purification, 2012)
*: point of attachment. Biotin = O=C1N[C@H]2[C@H](CS[C@H]2CCCCC(=O)*)N1

Experiments:
SEC = biological target: the molecule itself; assay: SEC
[1] = biological target: MBP-CLR ECD-H6:RAMP2 ECD-H6 complex (recombinant AM receptor ECD complex) (human, UniProt Q16602 29-144; O60895 36-140); assay: AlphaScreen or HTRF
MBP-CLR ECD-H6:RAMP2 ECD-H6 complex (recombinant AM receptor ECD complex), sequence (Q16602 29-144, one chain of several): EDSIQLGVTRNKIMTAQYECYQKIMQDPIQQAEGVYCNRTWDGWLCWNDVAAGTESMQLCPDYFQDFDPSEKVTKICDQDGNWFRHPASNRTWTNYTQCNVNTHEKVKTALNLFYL

binding result [1]	Binder	stoichiometry N (SEC)
–	RAMP2 ECD-H6 (RAMP2.36-140-H6), isolated extracellular domain of receptor activity modifying protein 2 (domain or fragment, human, UniProt O60895 36-140, looked up) NPHEALAQPLPTTGTPGSEGGTVKNYETAVQFCWNHYKDQMDPIEKDWCDWAMISRPYSTLRDCLEHFAELFDLGFPNPLAERIIFETHQIHFANCSLVQPTFSD	3
binds	Biotin-GTATVQKLAHQIYQFTDKDKDNVAPRSKISPQGY-NH2 (SMILES CC[C@H](C)[C@H](NC(=O)[C@H](CCC(N)=O)NC(=O)[C@H](Cc1c[nH]cn1)NC(=O)[C@H](C)NC(=O)[C@H](CC(C)C)NC(=O)[C@H](CCCCN)NC(=O)[C@H](CCC(N)=O)NC(=O)[C@@H](NC(=O)[C@@H](NC(=O)[C@H](C)NC(=O)[C@@H](NC(=O)CNC(=O)CCCC[C@@H]1SC[C@@H]2NC(=O)N[C@@H]21)[C@@H](C)O)[C@@H](C)O)C(C)C)C(=O)N[C@@H](Cc1ccc(O)cc1)C(=O)N[C@@H](CCC(N)=O)C(=O)N[C@@H](Cc1ccccc1)C(=O)N[C@H](C(=O)N[C@@H](CC(=O)O)C(=O)N[C@@H](CCCCN)C(=O)N[C@@H](CC(=O)O)C(=O)N[C@@H](CCCCN)C(=O)N[C@@H](CC(=O)O)C(=O)N[C@@H](CC(N)=O)C(=O)N[C@H](C(=O)N[C@@H](C)C(=O)N1CCC[C@H]1C(=O)N[C@@H](CCCNC(=N)N)C(=O)N[C@@H](CO)C(=O)N[C@@H](CCCCN)C(=O)N[C@H](C(=O)N[C@@H](CO)C(=O)N1CCC[C@H]1C(=O)N[C@@H](CCC(N)=O)C(=O)NCC(=O)N[C@@H](Cc1ccc(O)cc1)C(N)=O)[C@@H](C)CC)C(C)C)[C@@H](C)O) [B-AM(19–52)NH2[C21A]]	–
